Assay results published in patent US12091391B2, “Reagents and methods for bioorthogonal labeling of biomolecules in living cells” (Oregon State University, priority 2015, dated 2024).
Numbering of substitutions follows the chain as printed. Numbers in names are those of the source.

B1: R2-40: M. barkeri PylRS synthetase hit for Tet-v3.0: N311G, C313A, K296R (protein, UniProt Q46E77 1-419, looked up, variant N311G C313A K296R)
Pyrrolysine--tRNA ligase: MDKKPLDVLISATGLWMSRTGTLHKIKHYEVSRSKIYIEMACGDHLVVNNSRSCRTARAFRHHKYRKTCKRCRVSDEDINNFLTRSTEGKTSVKVKVVSAPKVKKAMPKSVSRAPKPLENPVSAKASTDTSRSVPSPAKSTPNSPVPTSAPAPSLTRSQLDRVEALLSPEDKISLNIAKPFRELESELVTRRKNDFQRLYTNDREDYLGKLERDITKFFVDRDFLEIKSPILIPAEYVERMGINNDTELSKQIFRVDKNLCLRPMLAPTLYNYLRKLDRILPDPIKIFEVGPCYRRESDGKEHLEEFTMVGFAQMGSGCTRENLESLIKEFLDYLEIDFEIVGDSCMVYGDTLDIMHGDLELSSAVVGPVPLDREWGIDKPWIGAGFGLERLLKVMHGFKNIKRASRSESYYNGISTNL
B2: R2-74: M. barkeri PylRS synthetase hit for Tet-v3.0: L270G, N311G, C313S (protein, UniProt Q46E77 1-419, looked up, variant L270G N311G C313S)
Pyrrolysine--tRNA ligase: B1 Pyrrolysine--tRNA ligase with L270G, R296K, A313S
B3: R2-84: M. barkeri PylRS synthetase hit for Tet-v3.0: L270G, N311G, C313A, R263C (protein, UniProt Q46E77 1-419, looked up, variant L270G N311G C313A R263C)
Pyrrolysine--tRNA ligase: B1 Pyrrolysine--tRNA ligase with R263C, L270G, R296K

experiment: UP50 characterization of select synthetases (GFP fluorescence versus Tet-v3.0 concentration); assay type: cell-based, E. coli; conditions: fluorescence normalized to optical density, amino acid Tet-v3.0 (methyl)
Excerpt: The UP50 value is a measure of amino acid concentration at which cells containing a given synthetase produces half of the maximum amount of unnatural protein containing the amino acid of interest. In this way the UP50 is dependent both on the synthetase and amino acid of interest. This value is obtained by measuring the fluorescence of produced GFP at various concentrations of amino acids and fitting measured values to the curve:
UP is the measured fluorescence, [AA] is the amino acid concentration, and UPmax is the maximum protein produced. The methodology for obtaining UP50 and UPmax values is described below.
Non-inducing media starter cultures containing Tcn (25 μg/mL) and Kn (50 μg/mL) were grown overnight (37° C., 18 hrs). Starter cultures consisted of E. coli DH10B transformed with a pBK plasmid containing the synthetases of interest (R2-40, R2-74, and R2-84) and tRNA, as well as a pALS plasmid containing an amber codon interrupted GFP gene under control of an araBAD promoter. Starters were used to inoculate (30 μL) autoinducing media (3 mL) containing Tcn (25 μg/mL), Kn (50 μg/mL), and Tet-v3.0 at various concentrations. Tet-v3.0 concentrations were varied from 0.005 mM to 1 mM with duplicates for each concentration. As a control, media was inoculated in duplicate containing no amino acid. To aid in dissolution, 30 μL of N,N-dimethyl formamide (DMF) was added to the Tet-v3.0 prior to addition to media.
The fluorescence and optical density of the media was measured after 24, 36, and 48 hrs. The fluorescence normalized to the optical density was plotted across Tet-v3.0 concentrations and used to calculate the UP50 and UPmax for individual synthetases (see FIG. 16. FIG. 16 compares UP50 titration curves for three Tet-v3.0-methyl incorporating synthetases: R2-40, R2-74, and R2-84. UP50 and UPmax values are obtained from the fit of the curves. The R2-74 synthetase was moved into eukaryotic plasmids for protein expression.

Row | Molecule | UPmax
1 | B1 | 540
2 | B2 | 400
3 | B3 | 517
